Test results from patent publication US20090118184A1 (UNIVERSITY OF ROCHESTER, published 2009).
Positions count from the first letter of the chain named.

Columns and labels:
Assay in all cases: cell-based or functional assay
[1] = target: T1, factor VIIIa A1/A3C1C2 dimer, R1966A (human, UniProt P00451 20-391; P00451 1709-2351)
T1 sequence 1: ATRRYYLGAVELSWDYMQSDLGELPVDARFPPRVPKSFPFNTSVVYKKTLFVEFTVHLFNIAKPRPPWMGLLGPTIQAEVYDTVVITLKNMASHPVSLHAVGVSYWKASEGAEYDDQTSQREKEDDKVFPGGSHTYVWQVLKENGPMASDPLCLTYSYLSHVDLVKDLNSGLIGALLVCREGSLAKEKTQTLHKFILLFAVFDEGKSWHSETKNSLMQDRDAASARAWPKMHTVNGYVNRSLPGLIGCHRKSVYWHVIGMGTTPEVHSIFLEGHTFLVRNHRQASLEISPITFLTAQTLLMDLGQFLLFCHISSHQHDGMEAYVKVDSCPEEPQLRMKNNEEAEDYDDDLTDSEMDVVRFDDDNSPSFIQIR
T1 sequence 2: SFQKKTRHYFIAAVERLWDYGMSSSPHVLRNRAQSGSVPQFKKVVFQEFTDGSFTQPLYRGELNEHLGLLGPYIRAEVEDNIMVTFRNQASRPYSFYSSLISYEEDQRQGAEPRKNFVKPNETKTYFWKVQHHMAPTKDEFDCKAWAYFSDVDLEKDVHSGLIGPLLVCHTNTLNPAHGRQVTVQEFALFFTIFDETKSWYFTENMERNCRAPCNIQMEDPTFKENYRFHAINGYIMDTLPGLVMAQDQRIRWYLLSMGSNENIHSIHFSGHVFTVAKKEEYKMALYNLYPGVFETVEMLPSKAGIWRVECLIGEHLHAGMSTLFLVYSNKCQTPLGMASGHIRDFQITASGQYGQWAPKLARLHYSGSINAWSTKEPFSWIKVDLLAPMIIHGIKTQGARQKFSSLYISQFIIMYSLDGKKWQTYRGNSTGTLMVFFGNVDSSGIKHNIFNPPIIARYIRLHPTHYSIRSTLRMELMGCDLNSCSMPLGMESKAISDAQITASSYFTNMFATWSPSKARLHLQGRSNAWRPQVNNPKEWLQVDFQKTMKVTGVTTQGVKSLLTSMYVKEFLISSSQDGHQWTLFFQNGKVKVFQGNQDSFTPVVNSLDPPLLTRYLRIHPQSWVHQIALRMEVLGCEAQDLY

[2] = target: T2, factor VIIIa A1/A3C1C2 dimer, D27A (human, UniProt P00451 20-391; P00451 1709-2351)
T2 chain 1: T1 sequence 1 with D27A
T2 chain 2: T1 sequence 2 with A277R

[3] = target: T3, factor VIIIa A1/A3C1C2 dimer, R282A (human, UniProt P00451 20-391; P00451 1709-2351)
T3 chain 1: T1 sequence 1 with R282A
T3 chain 2: T1 sequence 2 with A277R

[4] = target: T4, factor VIIIa A1/A3C1C2 dimer, E287A (human, UniProt P00451 20-391; P00451 1709-2351)
T4 chain 1: T1 sequence 1 with E287A
T4 chain 2: T1 sequence 2 with A277R

Factor VIIIa decay rate relative to wild type, FIXa (+) [1]: 1.44 relative to wild type
Factor VIIIa decay rate, FIXa (+) [1]: 0.0163 min⁻¹
Factor VIIIa decay rate relative to wild type, FIXa (+) [2]: 0.79 relative to wild type
Factor VIIIa decay rate, FIXa (+) [2]: 0.0089 min⁻¹
Factor VIIIa decay rate relative to wild type, FIXa (+) [3]: 41.7 relative to wild type
Factor VIIIa decay rate relative to wild type, FIXa (-) [3]: 10.7 relative to wild type
Factor VIIIa decay rate, FIXa (+) [3]: 0.471 min⁻¹
Factor VIIIa decay rate, FIXa (-) [3]: 0.674 min⁻¹
Factor VIIIa decay rate relative to wild type, FIXa (+) [4]: 0.78 relative to wild type
Factor VIIIa decay rate, FIXa (+) [4]: 0.0088 min⁻¹
B1: factor VIIIa A2 subunit, wild type (other)
chain: SVAKKHPKTWVHYIAAEEEDWDYAPLVLAPDDRSYKSQYLNNGPQRIGRKYKKVRFMAYTDETFKTREAIQHESGILGPLLYGEVGDTLLIIFKNQASRPYNIYPHGITDVRPLYSRRLPKGVKHLKDFPILPGEIFKYKWTVTVEDGPTKSDPRCLTRYYSSFVNMERDLASGLIGPLLICYKESVDQRGNQIMSDKRNVILFSVFDENRSWYLTENIQRFLPNPAGVQLEDPEFQASNIMHSINGYVFDSLQLSVCLHEVAYWYILSIGAQTDFLSVFFSGYTFKHKMVYEDTLTLFPFSGETVFMSMENPGLWILGCHNSDFRNRGMTALLKVSSCDKNTGDYYEDSYEDISAYLLSKNNAIEPR
